Assay results as given in patent US20190322765A1.

What was measured:
[1] = target: IL-2R βγ heterodimer on human cells (NK92 cells, NK and T cells of PBMC) (human) (UniProt P14784); assay: cell-based or functional assay
[2] = target: murine IL-2R βγ heterodimer (β knob γ hole Fc fusion) (murine) (UniProt P16297); assay: SPR, against the human IL-2R βγ heterodimer as reference
[3] = target: murine IL-2R α-subunit, recombinant monomeric (murine) (UniProt P01590); assay: SPR, against the human IL-2R α-subunit as reference
Chain of murine IL-2R α-subunit, recombinant monomeric (murine) (P01590 22-236 limits assumed): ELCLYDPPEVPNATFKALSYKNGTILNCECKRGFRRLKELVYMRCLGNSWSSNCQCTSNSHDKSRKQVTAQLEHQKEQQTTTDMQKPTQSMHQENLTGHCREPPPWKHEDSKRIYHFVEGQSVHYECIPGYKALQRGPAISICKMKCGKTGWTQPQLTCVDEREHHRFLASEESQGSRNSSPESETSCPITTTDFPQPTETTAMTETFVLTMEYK

Chain of IL-2R βγ heterodimer on human cells (NK92 cells, NK and T cells of PBMC) (human) (P14784 27-551, chain 1 of 2): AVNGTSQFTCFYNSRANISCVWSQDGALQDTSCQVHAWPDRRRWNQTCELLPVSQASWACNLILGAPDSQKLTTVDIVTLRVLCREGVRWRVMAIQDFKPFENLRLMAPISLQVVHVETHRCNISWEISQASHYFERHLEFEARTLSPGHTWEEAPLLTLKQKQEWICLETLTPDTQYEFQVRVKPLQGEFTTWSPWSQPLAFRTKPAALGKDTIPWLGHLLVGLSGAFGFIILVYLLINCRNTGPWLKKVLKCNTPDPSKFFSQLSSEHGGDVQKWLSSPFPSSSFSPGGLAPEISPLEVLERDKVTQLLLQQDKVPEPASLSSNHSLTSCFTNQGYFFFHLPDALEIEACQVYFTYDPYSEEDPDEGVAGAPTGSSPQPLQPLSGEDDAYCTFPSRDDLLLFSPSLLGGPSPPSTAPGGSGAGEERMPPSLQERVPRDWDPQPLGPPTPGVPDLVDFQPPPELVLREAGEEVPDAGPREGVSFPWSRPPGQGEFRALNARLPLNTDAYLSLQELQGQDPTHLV
Chain of IL-2R βγ heterodimer on human cells (NK92 cells, NK and T cells of PBMC) (human) (P31785 23-369, chain 2 of 2, further chain): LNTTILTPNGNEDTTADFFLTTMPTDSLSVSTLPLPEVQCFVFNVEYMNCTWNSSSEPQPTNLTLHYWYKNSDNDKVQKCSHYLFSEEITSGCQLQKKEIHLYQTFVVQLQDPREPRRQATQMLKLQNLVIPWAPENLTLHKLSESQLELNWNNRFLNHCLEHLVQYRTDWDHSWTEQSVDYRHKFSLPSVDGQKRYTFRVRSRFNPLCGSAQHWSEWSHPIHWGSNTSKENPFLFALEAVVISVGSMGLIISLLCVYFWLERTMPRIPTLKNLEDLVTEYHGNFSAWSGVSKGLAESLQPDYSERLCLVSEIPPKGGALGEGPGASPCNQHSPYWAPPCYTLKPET
Chain of murine IL-2R βγ heterodimer (β knob γ hole Fc fusion) (murine) (P16297 27-240, chain 1 of 2): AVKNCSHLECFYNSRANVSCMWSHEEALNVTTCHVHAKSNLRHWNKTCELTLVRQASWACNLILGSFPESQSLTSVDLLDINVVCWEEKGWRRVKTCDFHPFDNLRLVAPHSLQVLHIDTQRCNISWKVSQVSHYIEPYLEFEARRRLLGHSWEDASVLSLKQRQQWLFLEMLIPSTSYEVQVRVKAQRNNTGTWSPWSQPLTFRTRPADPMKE
Chain of murine IL-2R βγ heterodimer (β knob γ hole Fc fusion) (murine) (P34902 23-263, chain 2 of 2, further chain): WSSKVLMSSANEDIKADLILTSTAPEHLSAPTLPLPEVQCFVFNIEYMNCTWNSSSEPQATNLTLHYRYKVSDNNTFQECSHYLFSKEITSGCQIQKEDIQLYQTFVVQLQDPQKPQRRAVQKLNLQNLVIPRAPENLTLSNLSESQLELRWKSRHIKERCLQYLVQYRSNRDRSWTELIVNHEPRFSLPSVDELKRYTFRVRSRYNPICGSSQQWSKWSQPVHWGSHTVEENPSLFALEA

| Substance | EC50 of IFN-γ release by NK92 cells [1] | EC50 of STAT5 phosphorylation, CD8+ T cells [1] | EC50 of STAT5 phosphorylation, NK cells [1] | fold lower affinity than for the human receptor [2] | fold lower affinity than for the human receptor [3] |
| --- | --- | --- | --- | --- | --- |
| Proleukin (Novartis/Chiron), commercially available wild-type IL-2 (from UniProt P60568 22-153) (ligand) | 4.1 nM | 1070 pM | 222 pM | – | – |
| human IL-2 | – | – | – | 10 fold | 10 fold |
